Measurements as given in patent US20260217779.

Key:
[1] = target: T1, hCXCL11.0033-G1T4k.one//VHn-G1T4h.one.H435R
T1 chain 1: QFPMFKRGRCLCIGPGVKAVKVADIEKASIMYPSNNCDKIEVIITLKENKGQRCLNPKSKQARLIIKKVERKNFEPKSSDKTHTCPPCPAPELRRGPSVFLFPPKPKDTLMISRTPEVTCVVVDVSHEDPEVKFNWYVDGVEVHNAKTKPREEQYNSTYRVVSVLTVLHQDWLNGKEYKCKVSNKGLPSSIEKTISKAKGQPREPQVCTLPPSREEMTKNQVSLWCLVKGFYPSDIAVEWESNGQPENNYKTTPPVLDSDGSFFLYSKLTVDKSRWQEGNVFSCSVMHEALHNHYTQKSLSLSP
T1 chain 2: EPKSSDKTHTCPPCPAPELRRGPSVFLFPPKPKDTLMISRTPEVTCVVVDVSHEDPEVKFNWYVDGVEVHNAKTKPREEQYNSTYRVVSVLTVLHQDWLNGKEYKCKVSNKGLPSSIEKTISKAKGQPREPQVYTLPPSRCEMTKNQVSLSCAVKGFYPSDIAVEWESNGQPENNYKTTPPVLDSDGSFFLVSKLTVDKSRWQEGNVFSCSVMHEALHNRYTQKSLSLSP

[2] = target: T2, hITIP0035-G1T4k.one//VHn-G1T4h.one.H435R
T2 chain 1: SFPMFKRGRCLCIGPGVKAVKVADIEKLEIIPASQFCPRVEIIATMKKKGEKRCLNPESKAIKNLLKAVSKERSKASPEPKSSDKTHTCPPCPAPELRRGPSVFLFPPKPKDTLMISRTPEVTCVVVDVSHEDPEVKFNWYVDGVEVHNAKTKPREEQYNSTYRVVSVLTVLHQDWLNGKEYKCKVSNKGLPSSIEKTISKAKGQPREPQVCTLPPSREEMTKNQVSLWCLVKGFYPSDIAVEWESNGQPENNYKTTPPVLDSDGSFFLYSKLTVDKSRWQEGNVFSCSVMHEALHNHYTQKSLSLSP
T2 chain 2: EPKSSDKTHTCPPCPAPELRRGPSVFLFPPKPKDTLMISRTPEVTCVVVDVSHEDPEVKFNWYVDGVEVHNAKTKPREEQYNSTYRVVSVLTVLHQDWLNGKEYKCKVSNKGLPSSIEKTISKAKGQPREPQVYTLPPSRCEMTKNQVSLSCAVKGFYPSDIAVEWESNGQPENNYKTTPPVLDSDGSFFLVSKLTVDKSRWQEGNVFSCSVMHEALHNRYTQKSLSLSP

[3] = target: T3, hITIP0037-G1T4k.one//VHn-G1T4h.one.H435R
T3 chain 1: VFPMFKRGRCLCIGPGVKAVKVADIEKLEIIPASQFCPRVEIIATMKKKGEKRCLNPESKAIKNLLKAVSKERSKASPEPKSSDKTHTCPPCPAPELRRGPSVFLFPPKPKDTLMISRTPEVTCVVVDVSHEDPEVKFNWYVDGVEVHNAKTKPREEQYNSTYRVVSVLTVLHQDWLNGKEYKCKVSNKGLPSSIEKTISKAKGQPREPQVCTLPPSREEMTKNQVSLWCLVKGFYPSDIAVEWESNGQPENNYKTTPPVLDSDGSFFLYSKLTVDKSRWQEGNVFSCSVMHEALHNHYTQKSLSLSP
T3 chain 2: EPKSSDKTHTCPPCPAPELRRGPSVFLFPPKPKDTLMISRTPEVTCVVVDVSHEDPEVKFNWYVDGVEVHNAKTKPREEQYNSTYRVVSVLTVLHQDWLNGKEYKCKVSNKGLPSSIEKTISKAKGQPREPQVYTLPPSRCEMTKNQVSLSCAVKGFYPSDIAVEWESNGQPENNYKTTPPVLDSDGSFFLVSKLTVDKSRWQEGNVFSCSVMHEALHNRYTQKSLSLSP

[4] = target: T4, hCXCL11.0030-G1T4k.one//VHn-G1T4h.one.H435R
T4 chain 1: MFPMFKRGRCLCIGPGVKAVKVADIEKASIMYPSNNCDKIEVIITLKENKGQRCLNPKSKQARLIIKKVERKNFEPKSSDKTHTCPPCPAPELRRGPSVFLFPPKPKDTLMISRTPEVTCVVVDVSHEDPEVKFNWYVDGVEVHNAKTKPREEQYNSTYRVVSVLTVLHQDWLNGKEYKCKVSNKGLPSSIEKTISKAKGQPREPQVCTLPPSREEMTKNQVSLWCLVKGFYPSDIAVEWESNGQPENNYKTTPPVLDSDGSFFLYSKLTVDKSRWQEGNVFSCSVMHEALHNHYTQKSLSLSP
T4 chain 2: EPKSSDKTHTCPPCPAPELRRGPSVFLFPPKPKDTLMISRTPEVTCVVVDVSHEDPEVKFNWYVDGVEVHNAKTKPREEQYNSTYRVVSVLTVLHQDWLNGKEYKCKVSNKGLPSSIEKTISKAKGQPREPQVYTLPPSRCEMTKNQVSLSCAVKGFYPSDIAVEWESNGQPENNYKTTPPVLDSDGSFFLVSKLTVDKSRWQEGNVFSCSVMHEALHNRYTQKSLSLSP

[5] = target: T5, hITIP0039-G1T4k.one//VHn-G1T4h.one.H435R
T5 chain 1: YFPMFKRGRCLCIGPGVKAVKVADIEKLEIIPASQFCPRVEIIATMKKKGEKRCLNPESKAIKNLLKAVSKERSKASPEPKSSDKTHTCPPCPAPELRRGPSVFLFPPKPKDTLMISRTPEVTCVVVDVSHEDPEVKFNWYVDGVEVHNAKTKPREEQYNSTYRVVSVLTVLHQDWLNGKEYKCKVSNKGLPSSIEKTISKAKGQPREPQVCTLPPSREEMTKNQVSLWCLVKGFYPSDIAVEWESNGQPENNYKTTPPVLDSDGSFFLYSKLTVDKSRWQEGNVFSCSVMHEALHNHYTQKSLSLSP
T5 chain 2: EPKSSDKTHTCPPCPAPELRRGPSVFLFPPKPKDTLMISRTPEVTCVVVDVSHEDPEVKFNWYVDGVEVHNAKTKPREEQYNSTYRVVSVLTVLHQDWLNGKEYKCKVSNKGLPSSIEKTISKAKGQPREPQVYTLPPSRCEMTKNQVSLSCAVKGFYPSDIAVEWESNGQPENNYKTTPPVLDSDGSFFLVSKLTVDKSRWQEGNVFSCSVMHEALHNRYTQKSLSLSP

[6] = target: T6, hCXCL11.0023-G1T4k.one//VHn-G1T4h.one.H435R
T6 chain 1: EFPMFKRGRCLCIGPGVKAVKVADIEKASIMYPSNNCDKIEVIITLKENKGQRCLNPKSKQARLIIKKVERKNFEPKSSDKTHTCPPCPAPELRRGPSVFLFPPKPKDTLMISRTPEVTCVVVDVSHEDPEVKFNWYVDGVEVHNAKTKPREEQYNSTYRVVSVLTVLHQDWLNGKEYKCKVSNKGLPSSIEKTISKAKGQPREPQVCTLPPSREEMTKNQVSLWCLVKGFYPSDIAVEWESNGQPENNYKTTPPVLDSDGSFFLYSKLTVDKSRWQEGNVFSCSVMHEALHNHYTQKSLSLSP
T6 chain 2: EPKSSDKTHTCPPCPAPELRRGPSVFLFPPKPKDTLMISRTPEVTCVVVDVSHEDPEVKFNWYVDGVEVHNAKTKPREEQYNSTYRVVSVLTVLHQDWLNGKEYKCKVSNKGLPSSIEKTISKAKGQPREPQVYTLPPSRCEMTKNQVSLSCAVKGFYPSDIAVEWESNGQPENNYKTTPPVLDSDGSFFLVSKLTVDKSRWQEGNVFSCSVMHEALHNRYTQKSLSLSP

[7] = target: T7, hCXCL11.0021-G1T4k.one//VHn-G1T4h.one.H435R
T7 chain 1: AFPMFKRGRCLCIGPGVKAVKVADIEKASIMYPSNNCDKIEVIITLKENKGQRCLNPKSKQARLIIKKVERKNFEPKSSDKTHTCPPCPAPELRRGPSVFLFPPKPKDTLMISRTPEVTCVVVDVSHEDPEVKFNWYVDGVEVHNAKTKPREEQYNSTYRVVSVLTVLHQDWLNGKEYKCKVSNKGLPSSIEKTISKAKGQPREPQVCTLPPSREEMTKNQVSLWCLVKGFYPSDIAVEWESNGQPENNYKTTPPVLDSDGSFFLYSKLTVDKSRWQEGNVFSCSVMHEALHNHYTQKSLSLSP
T7 chain 2: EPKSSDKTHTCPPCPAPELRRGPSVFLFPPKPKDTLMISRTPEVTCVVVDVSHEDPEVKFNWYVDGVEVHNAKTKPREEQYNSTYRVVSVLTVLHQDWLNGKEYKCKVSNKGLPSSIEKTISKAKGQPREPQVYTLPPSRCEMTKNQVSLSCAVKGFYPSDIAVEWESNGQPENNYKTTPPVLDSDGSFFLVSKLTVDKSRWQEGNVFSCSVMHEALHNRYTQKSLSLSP

[8] = target: T8, hCXCL11.0037-G1T4k.one//VHn-G1T4h.one.H435R
T8 chain 1: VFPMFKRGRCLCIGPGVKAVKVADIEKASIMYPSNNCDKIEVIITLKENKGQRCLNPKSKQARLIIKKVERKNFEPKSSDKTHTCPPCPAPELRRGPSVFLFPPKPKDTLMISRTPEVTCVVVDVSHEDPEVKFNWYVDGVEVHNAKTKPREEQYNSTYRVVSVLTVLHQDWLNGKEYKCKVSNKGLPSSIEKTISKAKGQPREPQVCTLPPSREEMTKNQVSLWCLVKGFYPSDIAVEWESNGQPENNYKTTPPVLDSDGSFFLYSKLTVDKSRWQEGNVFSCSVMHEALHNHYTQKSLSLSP
T8 chain 2: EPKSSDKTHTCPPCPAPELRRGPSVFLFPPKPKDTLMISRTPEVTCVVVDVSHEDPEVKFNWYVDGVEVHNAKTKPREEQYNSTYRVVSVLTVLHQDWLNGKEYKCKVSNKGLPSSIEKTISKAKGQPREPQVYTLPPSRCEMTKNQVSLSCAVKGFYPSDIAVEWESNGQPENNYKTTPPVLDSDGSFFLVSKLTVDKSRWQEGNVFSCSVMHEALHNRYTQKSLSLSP

B1: human dipeptidyl peptidase IV (human DPPIV, hDPPIV) (Biolegend, 764102) (protein)
chain: NKGTDDATADSRKTYTLTDYLKNTYRLKLYSLRWISDHEYLYKQENNILVFNAEYGNSSVFLENSTFDEFGHSINDYSISPDGQFILLEYNYVKQWRHSYTASYDIYDLNKRQLITEERIPNNTQWVTWSPVGHKLAYVWNNDIYVKIEPNLPSYRITWTGKEDIIYNGITDWVYEEEVFSAYSALWWSPNGTFLAYAQFNDTEVPLIEYSFYSDESLQYPKTVRVPYPKAGAVNPTVKFFVVNTDSLSSVTNATSIQITAPASMLIGDHYLCDVTWATQERISLQWLRRIQNYSVMDICDYDESSGRWNCLVARQHIEMSTTGWVGRFRPSEPHFTLDGNSFYKIISNEEGYRHICYFQIDKKDCTFITKGTWEVIGIEALTSDYLYYISNEYKGMPGGRNLYKIQLSDYTKVTCLSCELNPERCQYYSVSFSKEAKYYQLRCSGPGLPLYTLHSSVNDKGLRVLEDNSALDKMLQNVQMPSKKLDFIILNETKFWYQMILPPHFDKSKKYPLLLDVYAGPCSQKADTVFRLNWATYLASTENIIVASFDGRGSGYQGDKIMHAINRRLGTFEVEDQIEAARQFSKMGFVDNKRIAIWGWSYGGYVTSMVLGSGSGVFKCGIAVAPVSRWEYYDSVYTERYMGLPTPEDNLDHYRNSTVMSRAENFKQVEYLLIHGTADDNVHFQQSAQISKALVDVGVDFQAMWYTDEDHGIASSTAHQHIYTHMSHFIKQCFSLP
[1]
  cleavage by hDPPIV (LC/MS mass): showed no mass change suggestive of peptide bond cleavage by hDPPIV treatment
[2]
  cleavage by hDPPIV (LC/MS mass): showed no mass change suggestive of peptide bond cleavage by hDPPIV treatment
[3]
  cleavage by hDPPIV (LC/MS mass): showed no mass change suggestive of peptide bond cleavage by hDPPIV treatment
[4]
  cleavage by hDPPIV (LC/MS mass): showed no mass change suggestive of peptide bond cleavage by hDPPIV treatment
[5]
  cleavage by hDPPIV (LC/MS mass): showed no mass change suggestive of peptide bond cleavage by hDPPIV treatment
[6]
  cleavage by hDPPIV (LC/MS mass): showed no mass change suggestive of peptide bond cleavage by hDPPIV treatment
[7]
  cleavage by hDPPIV (LC/MS mass): showed no mass change suggestive of peptide bond cleavage by hDPPIV treatment
[8]
  cleavage by hDPPIV (LC/MS mass): showed no mass change suggestive of peptide bond cleavage by hDPPIV treatment
